The chains are these.
B1: AP-4 complex accessory subunit RUSC1 (Homo sapiens), Q9BVN2 (parent)
chain: MLSPQRALLCNLNHIHLQHVSLGLHLSRRPELQEGPLSTPPPPGDTGGKESRGPCSGTLVDANSNSPAVPCRCCQEHGPGLENRQDPSQEEEGAASPSDPGCSSSLSSCSDLSPDESPVSVYLRDLPGDEDAHPQPSIIPLEQGSPLASAGPGTCSPDSFCCSPDSCSGASSSPDPGLDSNCNALTTCQDVPSPGLEEEDERAEQDLPTSELLEADDGKIDAGKTEPSWKINPIWKIDTEKTKAEWKTTENNNTGWKNNGNVNSSWKSEPEKFDSGWKTNTRITDSGSKTDAGKIDGGWRSDVSEEPVPHRTITSFHELAQKRKRGPGLPLVPQAKKDRSDWLIVFSPDTELPPSGSPGGSSAPPREVTTFKELRSRSRAPAPPVPPRDPPVGWALVPPRPPPPPVPPRRKKNRPGLQPIAEGQSEEGRAVSPAAGEEAPAAKEPGAQAGLEVRSSWSFAGVPGAQRLWMAEAQSGTGQLQEQKKGLLIAVSVSVDKIISHFGAARNLVQKAQLGDSRLSPDVGHLVLTTLCPALHALVADGLKPFRKDLITGQRRSSPWSVVEASVKPGSSTRSLGTLYSQVSRLAPLSSSRSRFHAFILGLLNTKQLELWFSSLQEDAGLLSLLYLPTGFFSLARGGCPSLSTELLLLLQPLSVLTFHLDLLFEHHHHLPLGPPQAPAPPGPPPALQQTMQAMLHFGGRLAQSLRGTSKEAASDPSDSPNLPTPGSWWEQLTQASRVYASGGTEGFPLSRWAPGRHGTAAEEGAQERPLPTDEMAPGRGLWLGRLFGVPGGPAENENGALKSRRPSSWLPPTVSVLALVKRGAPPEMPSPQELEASAPRMVQTHRAVRALCDHTAARPDQLSFRRGEVLRVITTVDEDWLRCGRDGMEGLVPVGYTSLVL
B2: Cyclin-D1-binding protein 1 (Homo sapiens), O95273 (parent)
chain: MASATAPAAAVPTLASPLEQLRHLAEELRLLLPRVRVGEAQETTEEFNREMFWRRLNEAAVTVSREATTLTIVFSQLPLPSPQETQKFCEQVHAAIKAFIAVYYLLPKDQGITLRKLVRGATLDIVDGMAQLMEVLSVTPTQSPENNDLISYNSVWVACQQMPQIPRDNKAAALLMLTKNVDFVKDAHEEMEQAVEECDPYSGLLNDTEENNSDNHNHEDDVLGFPSNQDLYWSEDDQELIIPCLALVRASKACLKKIRMLVAENGKKDQVAQLDDIVDISDEISPSVDDLALSIYPPMCHLTVRINSAKLVSVLKKALEITKASHVTPQPEDSWIPLLINAIDHCMNRIKELTQSELEL
partner: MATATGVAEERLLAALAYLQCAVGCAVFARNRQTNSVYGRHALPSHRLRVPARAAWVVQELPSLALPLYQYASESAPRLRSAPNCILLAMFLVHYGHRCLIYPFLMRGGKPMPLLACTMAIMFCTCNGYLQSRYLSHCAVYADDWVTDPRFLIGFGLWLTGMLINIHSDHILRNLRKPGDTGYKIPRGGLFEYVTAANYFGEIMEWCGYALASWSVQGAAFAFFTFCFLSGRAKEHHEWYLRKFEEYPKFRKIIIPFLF
B3: Pre-mRNA-splicing factor SPF27 (Homo sapiens), O75934 (parent)
chain: MAGTGLVAGEVVVDALPYFDQGYEAPGVREAAAALVEEETRRYRPTKNYLSYLTAPDYSAFETDIMRNEFERLAARQPIELLSMKRYELPAPSSGQKNDITAWQECVNNSMAQLEHQAVRIENLELMSQHGCNAWKVYNENLVHMIEHAQKELQKLRKHIQDLNWQRKNMQLTAGSKLREMESNWVSLVSKNYEIERTIVQLENEIYQIKQQHGEANKENIRQDF
partner: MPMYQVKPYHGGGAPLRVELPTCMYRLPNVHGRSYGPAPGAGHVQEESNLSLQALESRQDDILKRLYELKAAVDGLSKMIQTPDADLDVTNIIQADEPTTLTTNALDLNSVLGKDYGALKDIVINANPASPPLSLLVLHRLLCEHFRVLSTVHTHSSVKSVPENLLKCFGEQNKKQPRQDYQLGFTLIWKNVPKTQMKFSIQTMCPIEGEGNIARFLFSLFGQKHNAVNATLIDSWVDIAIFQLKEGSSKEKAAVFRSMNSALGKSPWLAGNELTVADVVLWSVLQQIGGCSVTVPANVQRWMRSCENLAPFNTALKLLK
B4: Zinc finger and BTB domain-containing protein 9 (Homo sapiens), Q96C00 (parent)
chain: METPTPLPPVPASPTCNPAPRTIQIEFPQHSSSLLESLNRHRLEGKFCDVSLLVQGRELRAHKAVLAAASPYFHDKLLLGDAPRLTLPSVIEADAFEGLLQLIYSGRLRLPLDALPAHLLVASGLQMWQVVDQCSEILRELETSGGGISARGGNSYHALLSTTSSTGGWCIRSSPFQTPVQSSASTESPASTESPVGGEGSELGEVLQIQVEEEEEEEEDDDDEDQGSATLSQTPQPQRVSGVFPRPHGPHPLPMTATPRKLPEGESAPLELPAPPALPPKIFYIKQEPFEPKEEISGSGTQPGGAKEETKVFSGGDTEGNGELGFLLPSGPGPTSGGGGPSWKPVDLHGNEILSGGGGPGGAGQAVHGPVKLGGTPPADGKRFGCLCGKRFAVKPKRDRHIMLTFSLRPFGCGICNKRFKLKHHLTEHMKTHAGALHACPHCGRRFRVHACFLRHRDLCKGQGWATAHWTYK
partner: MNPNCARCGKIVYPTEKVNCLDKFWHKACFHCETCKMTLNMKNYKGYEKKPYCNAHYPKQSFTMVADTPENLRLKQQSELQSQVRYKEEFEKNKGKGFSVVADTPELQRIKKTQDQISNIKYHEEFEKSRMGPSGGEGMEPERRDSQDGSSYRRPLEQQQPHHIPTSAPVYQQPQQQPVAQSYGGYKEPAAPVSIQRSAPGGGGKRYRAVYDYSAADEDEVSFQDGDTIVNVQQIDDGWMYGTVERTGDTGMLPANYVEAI
B5: Dystrobrevin beta (Homo sapiens), O60941 (parent)
chain: MIEESGNKRKTMAEKRQLFIEMRAQNFDVIRLSTYRTACKLRFVQKRCNLHLVDIWNMIEAFRDNGLNTLDHTTEISVSRLETVISSIYYQLNKRLPSTHQISVEQSISLLLNFMIAAYDSEGRGKLTVFSVKAMLATMCGGKMLDKLRYVFSQMSDSNGLMIFSKFDQFLKEVLKLPTAVFEGPSFGYTEHSVRTCFPQQRKIMLNMFLDTMMADPPPQCLVWLPLMHRLAHVENVFHPVECSYCRCESMMGFRYRCQQCHNYQLCQNCFWRGHAGGPHSNQHQMKEHSSWKSPAKKLSHAISKSLGCVPTREPPHPVFPEQPEKPLDLAHIVPPRPLTNMNDTMVSHMSSGVPTPTKRLQYSQDIPSHLADEHALIASYVARLQHCARVLDSPSRLDEEHRLIARYAARLAAEAGNVTRPPTDLSFNFDANKQQRQLIAELENKNREILQEIQRLRLEHEQASQPTPEKAQQNPTLLAELRLLRQRKDELEQRMSALQESRRELMVQLEELMKLLKEEEQKQAAQATGSPHTSPTHGGGRPMPMPVRSTSAGSTPTHCPQDSLSGVGGDVQEAFAQGTRRNLRNDLLVAADSITNTMSSLVKELHSAEEGAEEEEEKMQNGKDRG
partner: B4 chain
B6: Vesicle transport through interaction with t-SNAREs homolog 1B (Homo sapiens), Q9UEU0 (parent)
chain: MASSAASSEHFEKLHEIFRGLHEDLQGVPERLLGTAGTEEKKKLIRDFDEKQQEANETLAEMEEELRYAPLSFRNPMMSKLRNYRKDLAKLHREVRSTPLTATPGGRGDMKYGIYAVENEHMNRLQSQRAMLLQGTESLNRATQSIERSHRIATETDQIGSEIIEELGEQRDQLERTKSRLVNTSENLSKSRKILRSMSRKVTTNKLLLSIIILLELAILGGLVYYKFFRSH
partner: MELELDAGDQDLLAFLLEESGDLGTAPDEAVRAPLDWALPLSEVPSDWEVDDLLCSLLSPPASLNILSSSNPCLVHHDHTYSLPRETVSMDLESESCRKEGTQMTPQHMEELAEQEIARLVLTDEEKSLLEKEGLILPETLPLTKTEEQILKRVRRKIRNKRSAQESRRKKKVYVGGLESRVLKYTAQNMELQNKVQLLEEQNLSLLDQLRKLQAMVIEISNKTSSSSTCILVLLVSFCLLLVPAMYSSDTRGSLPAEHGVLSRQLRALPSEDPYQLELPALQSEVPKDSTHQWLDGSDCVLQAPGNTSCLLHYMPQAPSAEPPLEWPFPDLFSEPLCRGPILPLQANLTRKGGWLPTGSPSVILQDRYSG
B7: Fibronectin type III and SPRY domain-containing protein 2 (Homo sapiens), A1L4K1 (parent)
chain: MEEESGEELGLDRSTPKDFHFYHMDLYDSEDRLHLFPEENTRMRKVVQAEMANESRGAGDGKAQRDLQEEVDELVHLYGLEDDHELGDEFVDENIPRTGVSEYPPYMMKRRDPAREQRDWRLSGEAAEAEDLGFGGWGSAGQCQDLREAYRYTHGRASEEYECYVIPEEEDEEEAADVFCVTCKTPIRAFQKVFDEHKEHEVIPLNEALESAKDEIHKNMYKLEKQIIEMENFANHLEEVFITVEENFGKQEQNFESHYNEILETLAQKYEEKIQALGEKKKEKLEALYGQLVSCGENLDTCKELMETIEEMCHEEKVDFIKDAVAMADRLGKFLKTKTDVEISAQPEFEDQTLDFSDVEQLMGSINTIPAPSAPVINPQVPNSATGSSVRVCWSLYSDDTVESYQLSYRPVQDSSPGTDQAEFTVTVKETYCSVTNLVPNTQYEFWVTAHNRAGPSPSSERAVYMTAPSPPIIKTKEIRSCEEAVLICWESGNLNPVDSYTVELTQAESPEASGVTESVVGIPTCESVVQLQPGRSYIIYVRALNMGGPSVRSEPATVHTIGSYFRLNKDTCHPWLTISEDGLTAVRSERRTPARELSPSDTHFTRCVAVMGNLIPVRGHHYWEVEVDEHLDYRVGVAFADVRKQEDLGANCLSWCMRHTFASSRHKYEFLHNRTTPDIRITVPPKKIGILLDYEHSKLSFFNVDLSQHLYTFSCQLHEFVHPCFSLEKPGCLKVHNGISMPKHVTFY
partner: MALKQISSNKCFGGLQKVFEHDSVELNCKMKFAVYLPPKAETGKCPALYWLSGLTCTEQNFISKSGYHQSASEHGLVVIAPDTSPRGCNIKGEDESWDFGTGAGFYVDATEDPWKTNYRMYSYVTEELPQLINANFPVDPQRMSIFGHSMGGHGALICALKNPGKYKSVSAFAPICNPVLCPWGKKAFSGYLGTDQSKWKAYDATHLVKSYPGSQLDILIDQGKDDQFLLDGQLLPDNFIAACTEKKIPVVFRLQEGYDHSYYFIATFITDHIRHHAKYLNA
B8: TNF receptor-associated factor 2 (Homo sapiens), Q12933 (parent)
chain: MAAASVTPPGSLELLQPGFSKTLLGTKLEAKYLCSACRNVLRRPFQAQCGHRYCSFCLASILSSGPQNCAACVHEGIYEEGISILESSSAFPDNAARREVESLPAVCPSDGCTWKGTLKEYESCHEGRCPLMLTECPACKGLVRLGEKERHLEHECPERSLSCRHCRAPCCGADVKAHHEVCPKFPLTCDGCGKKKIPREKFQDHVKTCGKCRVPCRFHAIGCLETVEGEKQQEHEVQWLREHLAMLLSSVLEAKPLLGDQSHAGSELLQRCESLEKKTATFENIVCVLNREVERVAMTAEACSRQHRLDQDKIEALSSKVQQLERSIGLKDLAMADLEQKVLEMEASTYDGVFIWKISDFARKRQEAVAGRIPAIFSPAFYTSRYGYKMCLRIYLNGDGTGRGTHLSLFFVVMKGPNDALLRWPFNQKVTLMLLDQNNREHVIDAFRPDVTSSSFQRPVNDMNIASGCPLFCPVSKMEAKNSYVRDDAIFIKAIVDLTGL

Variants of B1 are the subject of one assay. The note with it: with pnma1_human PNMA1, Q8ND90.
pnma1_human PNMA1, Q8ND90, sequence (Q8ND90 whole entry): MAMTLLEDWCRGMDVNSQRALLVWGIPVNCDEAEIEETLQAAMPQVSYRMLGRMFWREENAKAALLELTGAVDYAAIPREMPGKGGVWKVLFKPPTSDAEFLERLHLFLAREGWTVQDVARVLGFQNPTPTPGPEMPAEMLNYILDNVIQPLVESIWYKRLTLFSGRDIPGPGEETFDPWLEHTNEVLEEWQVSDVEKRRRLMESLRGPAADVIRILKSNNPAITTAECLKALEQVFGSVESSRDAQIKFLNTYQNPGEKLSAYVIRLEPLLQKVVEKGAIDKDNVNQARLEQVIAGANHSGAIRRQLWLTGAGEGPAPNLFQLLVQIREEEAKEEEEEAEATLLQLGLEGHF
As to V493A, the “effect of a mutation on the interaction” value is on record as “with no effect”.

Variants of B1 are the subject of the next assay. The note with it: with fam9b_human FAM9B.
For V493A, the “effect of a mutation on the interaction” value is given as “with no effect”.

A further assay covers variants of B2. The note with it: with s5a1_human SRD5A1, P18405.
For I277T, the “effect of a mutation on the interaction” value is recorded as “disrupting interaction strength”.

Variants of B3 are the subject of another assay. To be noted: with aimp2_human AIMP2, Q13155.
Regarding N139S, the “effect of a mutation on the interaction” value was “with no effect”.

A further assay covers variants of B4. The note with it: with lasp1_human LASP1, Q14847.
S173C: the “effect of a mutation on the interaction” value is given as “with no effect”.

The next assay covers variants of B5. The note with it: with zbtb9_human ZBTB9, Q96C00.
With R80H, the “effect of a mutation on the interaction” value is recorded as “with no effect”.

The variants in a further assay derive from B6. The note with it: with creb3_human CREB3, O43889.
Regarding R124Q, the “effect of a mutation on the interaction” value is recorded as “with no effect”.
Take R176H: the “effect of a mutation on the interaction” value is recorded as “with no effect”.

Variants of B7 are the subject of the next assay. To be noted: with estd_human ESD.
In the case of K333T, the “effect of a mutation on the interaction” value is on record as “with no effect”.

A further assay covers variants of B8. The note with it: with traf1_human TRAF1, Q13077.
traf1_human TRAF1, Q13077, sequence (Q13077 whole entry): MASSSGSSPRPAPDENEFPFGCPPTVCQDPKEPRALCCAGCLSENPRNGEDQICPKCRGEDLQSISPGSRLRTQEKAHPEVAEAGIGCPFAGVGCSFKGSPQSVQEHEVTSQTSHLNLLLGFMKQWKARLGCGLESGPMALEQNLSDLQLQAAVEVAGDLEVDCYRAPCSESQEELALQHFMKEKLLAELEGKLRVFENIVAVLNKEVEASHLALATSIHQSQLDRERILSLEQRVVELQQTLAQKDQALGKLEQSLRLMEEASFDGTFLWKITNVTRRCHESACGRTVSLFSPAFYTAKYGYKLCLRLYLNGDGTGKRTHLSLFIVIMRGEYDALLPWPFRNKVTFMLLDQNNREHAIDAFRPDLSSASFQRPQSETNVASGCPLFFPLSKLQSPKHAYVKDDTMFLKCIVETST
For the variant K278T, the “effect of a mutation on the interaction” value is on record as “with no effect”.
In the case of A264T, the “effect of a mutation on the interaction” value is listed as “with no effect”.

Source of the values: IntAct's records for PubMed 31515488.
